Measured values reported in the supplement of paper PMC9170038.

Test system: MS2 coat protein
Experiment: apparent KD of MS2 coat protein; higher = weaker reporter binding
Conditions: Eterna round: R107
Method in brief: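 Apparent KD stands for the median, per design, of fits to normalised cluster binding curves. The curves came from titrating on-chip-transcribed RNA switches on Illumina sequencing clusters with SNAP-549-labelled MS2 coat protein, twofold from 0.7 or 1.5 nM to 3 µM. Buffer was 100 mM Tris-HCl pH 7.5, 80 mM KCl, 4 mM MgCl2, without or with constant ligand.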

[1] = input ligand: theophylline 20 uM
[2] = input ligand: tryptophan 2.4 mM
[3] = input ligand: theophylline 2 mM

| Sequence | apparent KD of MS2 coat protein (input ligand: arginine 13.2 mM) | apparent KD of MS2 coat protein [1] | apparent KD of MS2 coat protein [2] | apparent KD of MS2 coat protein (input ligand: none) | apparent KD of MS2 coat protein [3] |
| --- | --- | --- | --- | --- | --- |
| ACAUGAACAUGAGGAUCACCCAUGUGGGAUACCAGCGUGUAUGAGCGCCCUUGGCAGCUCAUGACAUGAGGAUCACCCAUGUUGG [Exclusion Theophylline A 4] | 154 nM | 242 nM | 224 nM | – | – |
| UACAUAUGCCGAAGGAGCGCGAGAUGCAAAGCAUCAUUCCUCACAUGAGGAUCACCCAUGUCGCAGGUAGGUCGCGGCAUAUGUU [ArgBX] | 46.7 nM | 45.1 nM | 32.4 nM | 32.5 nM | 40.3 nM |
| GGUCUGUGGAGCGAUACCAGCUUGAGUGUACUGGCCAGGUACAUGAGGAUCACCCAUGUAAGCCCUUGGCAGCGCUCCAGAGACC [#1 Exclusion - Theophylline B Attempt #17 (HarryS)] | 7.42 nM | 13.8 nM | 10.9 nM | 9.29 nM | 31.5 nM |
| GGCUAGGUCUCGGCCGCCACUGCUACAUGAGGAUCACCCAUGUACCUGGGCGGUCGCUCCCUCGGCAGGACCGGGAGACAUUCGU [Onarbeisan] | 9.2 nM | 13.8 nM | – | – | 12.5 nM |
| AACUAAUCACAUGAGGAUCACCCAUGUGAUACCAGCUAAUCCCAAAGCCCUUGGCAGCACCUUUGGGUCCCGGUGUGUUUGAACA [Onceesa] | 9.42 nM | 12.3 nM | 9.33 nM | – | – |
| GCUUCACAUGAGGAUCACCCAUGUCCGGAUACCAGCUCUCCAGACAGCCCUUGGCAGCCGAGCGCCCGAUUAUAUACCCUAGGAG [theeternabot_sameState_MS2_Theo_A_28] | 21.1 nM | 53.7 nM | 27.9 nM | – | – |
| UUAGUAACGACGGCCGCCACUGAUUUUGGACAUGAGGAUCACCCAUGUAAAGAUCCUAGAAUGGUCAGGACCGGGUCUGAUAAUG [Exclusion Tryptophane B GF4] | 35 nM | 40 nM | 64.4 nM | 35.3 nM | 54 nM |
| GUAUGGAAACAUACUAGGGUAUCAUGAGAUACCAGUACAGAAAUGUACCCUUGGCAGCUCAAGCAUACAUGAGGAUCACCCAUGU [Ex Theophylline A 7] | 15 nM | 22.7 nM | 15.8 nM | – | – |
| GGCCAUGGAAACAUGGCGGCGGCAUAUGCGCGAGGACCGGUACGGCCGCCACUCGGGCAACAUGAGGAUCACCCAUGUUCCUCAU [ETA NP+V+V2 #24 +-Same Structure] | 67.4 nM | 356 nM | – | – | 388 nM |
| GGAUGGAACUCGGCCGCCACUGGUGAUCCUAAUGUACAUGAGGAUCACCCAUGUACAUGAGAAGAUAGGACCGGGAGAUAACAUG [V5] | 23.5 nM | 31.2 nM | – | – | 29.4 nM |
| ACAUGAGGAUCACCCAUGUAUCAACGGGAAGGAGCGCCAAACAAGGCAGGUAGGUCGCCCACAUGAGGAUCACCCGUGUGUUGGG [Exclusion Arginine A GF 30] | 23.1 nM | 58.5 nM | 38.4 nM | 37.8 nM | 43.9 nM |
| UUGACAUGAGGAUCACCCAUGUAAACUGAAGGAGCGUCGAAAAUGACAGGUAGGUCGCAGAAUAAUAAUGGUGAUCGUAAAUAUU [#12 Exclusion - Arginine A] | 42.6 nM | 79.9 nM | 63 nM | 79 nM | 83.9 nM |
| CGAUGAUCGAGGGAUACCAGAAAUGGUAUUCCUUUAUUUCUUACAUGAGGAUCACCCAUGUUCCCUUGGCAGCUUUUGAUCAUCG [ETHB #7] | 60.5 nM | 86.1 nM | 74.6 nM | – | – |
| AGGUGCGGCACGGCCGCCACUGCGGUGGUGUGACAUGAGGAUCACCCAUGUUGUCAUGCGGCCCUUAGGACCGGGUGGCGUGCCU [#1 Exclusion - Tryptophan B Attempt #16 (HarryS)] | 27.9 nM | 64.4 nM | – | – | 68.9 nM |
| AUUAUCAUGGUCAUAUAUAUAUCGUCAGAUACCAGACUAGAUAUAGUCCCUUGGCAGCUGUUACAUGAGGAUCACCCAUGUUAUA [JR_ExcTheophyA_Sub015] | 43.5 nM | 80.1 nM | 88.7 nM | – | – |
| GGCACAUAGUCGGCCGCCACUACGUGGAGAUCGGAGUACAUGAGGAUCACCCAUGUAUGGAAGGGUAGGACCGGGACUAUGUGCC [Horalka] | 38.3 nM | 38.5 nM | 18.7 nM | 67.1 nM | 123 nM |
